Sequences and labels used below:
B1: GFP-Nanog (natural protein, UniProt Q80Z64 1-305, looked up)
chain: MSVGLPGPHSLPSSEEASNSGNASSMPAVFHPENYSCLQGSATEMLCTEAASPRPSSEDLPLQGSPDSSTSPKQKLSSPEADKGPEEEENKVLARKQKMRTVFSQAQLCALKDRFQKQKYLSLQQMQELSSILNLSYKQVKTWFQNQRMKCKRWQKNQWLKTSNGLIQKGSAPVEYPSIHCSYPQGYLVNASGSLSMWGSQTWTNPTWSSQTWTNPTWNNQTWTNPTWSSQAWTAQSWNGQPWNAAPLHNFGEDFLQPYVQLQQNFSASDLEVNLEATRESHAHFSTPQALELFLNYSVTPPGEI
B2: mCherry-Nanog (natural protein, UniProt Q80Z64 1-305, looked up)
chain: B1 chain
B3: GFP-Sox2 (natural protein)
chain: not shown

Data set [1] deals with the molecule itself. Nature of the data set: fluorescence correlation spectroscopy.
Data set [2] concerns the molecule itself. Nature of the data set: fluorescence correlation spectroscopy. The source holds these as a separate data set.
The data set “mCherry-Nanog” concerns the target B2. Put plainly: fluorescence cross-correlation spectroscopy.
Data set [3] concerns the molecule itself. Put plainly: fluorescence correlation spectroscopy. The source holds these as a separate data set.

As usually defined, the stoichiometry N is a count of units in the complex or per binding partner.

For B1, the “stoichiometry N” value in data set [1] is 2. Further, the GFP-Nanog/GFP brightness ratio in data set [2] is around 1.5. In the data set with mCherry-Nanog, this molecule showed a complex % of 19.8%.
Turning to B2, in data set [3], the mCherry-Nanog/mCherry brightness ratio is around 2.
On to B3, for which the complex % in the data set with mCherry-Nanog amounted to 26.1%.
